The text below walks through data of the nanobody polyreactivity screen of Harvey et al. (2022).

The data set is described as follows: yeast display, Sf9 membrane polyspecificity reagent, FACS + sequencing; frameworks hold sequencing errors. An outline of the steps:
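Galactose-induced (36–48 hours) yeast carrying a synthetic nanobody display library were exposed to 10% biotinylated, detergent-solubilized Sf9 membrane reagent at 4 °C for 1 hour. FACS followed streptavidin microbead enrichment, using low and high (top ~1%) gates for expression (anti-HA) and reagent binding (streptavidin). Colony PCR, MiSeq 2 × 250 sequencing and CDR-length filtering followed. Labels for polyreactivity reflect the gate of origin.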
“QVQLVESGGGLVQAGGSLRLSCAASGRIFNAYAIGWYRQAPGKERELVAAITVSGTRTYYADSVKGRFTISRDNAKNTVYLQMNSLKPEDTAVYYCAADIYHQPRYKYYYWGQGTQVTVSS”: the “polyreactivity (PSR sort gate)” value is on record as “high polyreactivity”.
Then “QVQLVESGGGLVQAGGSLRLSCAASGRIFNDYAMGWYRQAPGKERELVATYADSVKGRFTISRDNAKNTVYLQMNSLKPEDTAVYYCAADFPSFPDFRPEYDYWGQGTQVTVSS”, with “low polyreactivity”; and “QVQLVESGGGLVQAGGSLRLSCAASGRIFNENAMGWYRQAPGKERELVAAISRRGGTTYYADSVKGRFTISRDNAKNTVYLQMNSLIPEDTAVYYCNARYSKKGESQREYDYWGQGTQVTVSS”, with “low polyreactivity”; and “QVQLVESGGGLVQAGGSLRLSCAASGRIFNGYTMGWYRQAPGKEREFVATISRSGGSTYYADSVKGRFTISRDNAKNTVYLQMNSLKPEDTAVYYCAKTYPAKWEYDYWGQGTQVTVSS”, with “low polyreactivity”.
Then “QVQLVESGGGLVQAGGSLRLSCAASGRIFNHNTMGWYRQAPGKERELVAAISRSGASTYYADSVKGRFTISRDNAKNTVYLQMNSLKPEDTAVYYCNAATYADGITIYDYWGQGTQVTVSS”, with “low polyreactivity”.
The entry for “QVQLVESGGGLVQAGGSLRLSCAASGRIFNIYAMGWYRQAPGKERELVAAISVSGTRTYYADSVKGRFTISRDNAKNTVYLQMNSLKPEDTAVYYCAADSYGGVWTEHMYYWGQGTQVTVSS” is “low polyreactivity”.
Consider “QVQLVESGGGLVQAGGSLRLSCAASGRIFNLYDMGWYRQAPGKERELVAAIRIGDRTYYADSVKGRFTISRDNEKNTVYLQMNSLKQEDTAVYYCNREYLSNRDKRFFYWGQGTQVTVSS”, for which the “polyreactivity (PSR sort gate)” value is recorded as “low polyreactivity”.
As to “QVQLVESGGGLVQAGGSLRLSCAASGRIFNPNVMGWYRQAPGKERELVAAISWSGDTTYYADSVKWRFTISRDNAKNTVYLQMNSLKPEDTEVYYCATESDGYAYENYEYWGQGTQVTVSS”, the “polyreactivity (PSR sort gate)” value is on record as “high polyreactivity”.
For the sequence “QVQLVESGGGLVQAGGSLRLSCAASGRIFNRNAMGWYRQAPGKERELVAAISSDTSTNYADSVKGRFTISRDNAKNTVYLQMNSLKPEDTAVYYCAADVRRYDGYDYWGQGTQVTVSS”, the “polyreactivity (PSR sort gate)” value is listed as “low polyreactivity”.
Then “QVQLVESGGGLVQAGGSLRLSCAASGRIFNRYAMGWYRQAPGKERELVAAISRGGGTNYADSVKGRFTISRDNAKNTVYLQMNSLKPEDTAVYYCAAARGHNVETSTTYDRGDYWGQGTQVTVSS”, with “low polyreactivity”; and “QVQLVESGGGLVQAGGSLRLSCAASGRIFNRYAMGWYRQAPGKERELVAAITSGGDTNYADSVKGRFTISRDNAKNTVYLQMNSLKPEDTAVYYCNARSRGRASGYDYWGQGTQVTVSS”, with “high polyreactivity”; and “QVQLVESGGGLVQAGGSLRLSCAASGRIFNRYAMGWYRQAPGKERELVAAITSGGDTNYADSVKGRFTISRDNAKNTVYLQMNSLKPEETAVYYCAAYLYPWYSRYYYWGQGTQVTVSS”, with “high polyreactivity”.
Then “QVQLVESGGGLVQAGGSLRLSCAASGRIFNRYAMGWYRQAPGKERELVAAITTSADSTYADSVKGRFTISRDNAKNTVYLQMNSLKPEDTAVYYCNVASRQGSTYDYWGQGTQVTVSS”, with “high polyreactivity”; and “QVQLVESGGGLVQAGGSLRLSCAASGRIFNTYAMGWFRQAPGKERELVAAITRSAGRTYYADSVKGRFTISRDTAKNTVYLQMNSLKPEDTAVYYCAAQYNYGQRSGPYGYWGQGTQVTVSS”, with “low polyreactivity”; and “QVQLVESGGGLVQAGGSLRLSCAASGRIFNVYAMGWYRQAPGKERELVAAIRRRGDRTYYADSVKGRFTISRDNAKNTVYLQMNSLKPEDTAVYYCAKSQSAKGGYDYWGQGTQVTVSS”, with “high polyreactivity”.
Then “QVQLVESGGGLVQAGGSLRLSCAASGRIFNWYAMGWYRQAPGKERELVARISSGDITSYADSVKGRFTISRDNAKNTVYLQMNSLKPEDTAVYYCAARQWFLYDYWGHGTQVTVSS”, with “low polyreactivity”.
Take “QVQLVESGGGLVQAGGSLRLSCAASGRIFNYNAMGWYRQAPGKERELVAAITSSGDSTNYADSVKGRFTISRDNAKNTVYLQMNSLKPEDTAVYYCNASSPYDYDWGQGTQVTVSS”: the “polyreactivity (PSR sort gate)” value is reported as “low polyreactivity”.
The entry for “QVQLVESGGGLVQAGGSLRLSCAASGRIFNYNVMGWYRQAPGKERELVASISYSSTRTYYADSVKGRFTISRDTAKNTVYLQMNSLKPEDTAVYYCNADYYFSSYRSTFDYWGQGTQVTVSS” is “low polyreactivity”.
On to “QVQLVESGGGLVQAGGSLRLSCAASGRIFNYYAMGWYRQAPGKEREFVAAITRSGGRTYYADSVKGRFTISRDNAKNTVYLQMNSLKPEDPAVYYCAAGRYVWREYYYWGQGTQVTVSS”, for which the “polyreactivity (PSR sort gate)” value is “high polyreactivity”.
Consider “QVQLVESGGGLVQAGGSLRLSCAASGRIFNYYAMGWYRQAPGKERELVAAINSGGSTYADSVKGRFTISRDNAKNTVYLQMNSLKPEDTAVYYCAKDGQLQSVRERPSGYDHWGQGTQVTVSS”, for which the “polyreactivity (PSR sort gate)” value was “low polyreactivity”.
On to “QVQLVESGGGLVQAGGSLRLSCAASGRIFNYYAMGWYRQAPGKERELVAAISSGGITNYADSVKGRFTISRDNAKNTVYLQMNSLKPEDTAVYYCAADRSNRPYYRQGYDYWGQGTQVTVSS”, for which the “polyreactivity (PSR sort gate)” value is “high polyreactivity”.
The entry for “QVQLVESGGGLVQAGGSLRLSCAASGRIFPANDMGWYRQAPGKERELVASIRRGGITYADSVKGRFTISRDNAKNTVYLQMNSLKPEDNAVYYCNADYRGWGYHMDYWGQGTQVTVSS” is “low polyreactivity”; for “QVQLVESGGGLVQAGGSLRLSCAASGRIFPANVMGWYRQAPGKETELVAAITRGDSTNYADSVKGRFTISRDNAKNTVYLQMTSLKPEDTAVYYCAAYGRYLLWDYDYWGQGTQVTVSS” it is “low polyreactivity”; for “QVQLVESGGGLVQAGGSLRLSCAASGRIFPAYAMGWYRQAPGKERELVAAITGGGSTNYADSVKGRFTISRDNAKNTVYLQMNSLKPEDTAVYYCNAVTGTYGWAPQAREQEDYWGQGTQVTVSS” it is “low polyreactivity”.
In the case of “QVQLVESGGGLVQAGGSLRLSCAASGRIFPAYAMGWYRQAPGKEREWVASIRRGGITYADSVKGRFTISRDNAKNTVYLQMNSLKPEDTAVYYCNADYRGWGYHMDYWGQGTQVTVSS”, the “polyreactivity (PSR sort gate)” value is recorded as “low polyreactivity”.
Regarding “QVQLVESGGGLVQAGGSLRLSCAASGRIFPFYAMGWYRKAPGKERELVARITLSGGSTYYADSVKGRFTISRDNAKNTVYLQMNSLKPEDTAVYYCAADRTSWSVLDFDYWGQGTQVTVSS”, the “polyreactivity (PSR sort gate)” value is recorded as “low polyreactivity”.
Then “QVQLVESGGGLVQAGGSLRLSCAASGRIFPFYAMGWYRQAPGKERELVAAISRGGSTKYADSVKGRFTISRDNAKNTVYLQMKSLKPEDTAVYYCAAAGYGGSVAAYYYWGQGTQVTVSS”, with “high polyreactivity”; and “QVQLVESGGGLVQAGGSLRLSCAASGRIFPFYAMGWYRQAPGKETELVAVINASGGGTYYADSVKGRFTISRDNAKNTVYLQMNSLKPEDTAVYYCAATYSPFDFYYWGQGTQVTVSS”, with “low polyreactivity”.
Then “QVQLVESGGGLVQAGGSLRLSCAASGRIFPFYVMGWYRQAPGKERELVASIRGGGSTNYADSVKGRFTISRDNAKNTVYLQMNSLKPEDTAVYYCNAARRYRAPLYDYWGQGTQVTVSS”, with “high polyreactivity”; and “QVQLVESGGGLVQAGGSLRLSCAASGRIFPHYAMGWYRQAPGKERELVAAISSGGRTNYADSVKGRFTISRDNAKNTVYLQMNSLKPEDTAVYYCARRYPGGYYWGQGTQVTVSS”, with “high polyreactivity”; and “QVQLVESGGGLVQAGGSLRLSCAASGRIFPKYAMGWYRQAPGKERELVARISVRGGRTYYADSVKGRFTISRDNAKNTVYLQMNSLKPEDTAVYYCAAYTRPAYDYWGQGTQVTVSS”, with “high polyreactivity”.
The entry for “QVQLVESGGGLVQAGGSLRLSCAASGRIFPSNTMGWYRQAPGKERELVADISFGGGSTYYADSVKGRFTISRDNAKNTVYLQMNSLKPEDTAVYYCNADFGFGYVSLLYEYWGQGTQVTVSS” is “low polyreactivity”.
For the sequence “QVQLVESGGGLVQAGGSLRLSCAASGRIFPSYAMGWYRPAPGKERELVAAITRGSTTYYADSVKGRFTISRDNAKNTVYLQMNSLKPEDTAVYYCAAEENLAYYFKYYYWGQGTQVTVSS”, the “polyreactivity (PSR sort gate)” value was “low polyreactivity”.
The entry for “QVQLVESGGGLVQAGGSLRLSCAASGRIFPSYAMGWYRPAPGKERELVAAITWSGGSTYYAHSVKGRFTISRDNAKNTVYLLRNSLKPEDTAVYYCNRVERRGTYDYWGQGTQVSVSS” is “high polyreactivity”.
The entry for “QVQLVESGGGLVQAGGSLRLSCAASGRIFPTNAMGWYRQAPGKERELVASITRSGSTYYADSVKGRFTISRDNAKNTVYLQMNSLKPEDTAVYYCAAYAYIFLDWGGYPYYLYEYDYWGQGTQVTVSS” is “low polyreactivity”; for “QVQLVESGGGLVQAGGSLRLSCAASGRIFPTYAMGWYRQAPGKERELVASITSGVDTYYADSVKGRFTISRDNAKNTVYLQMNSLKPEDTAVYYCAARFFVWWKYDYWGQGTQVTVSS” it is “low polyreactivity”; for “QVQLVESGGGLVQAGGSLRLSCAASGRIFPWYTMGWYRQAPGKERELVAAITSGGNTDYADSVKGRFTISRDNAKNTVYLQMNSLKPEDTAVYYCAAGGYPGTTYYGYDYWGQGTQVTVSS” it is “low polyreactivity”.
Then “QVQLVESGGGLVQAGGSLRLSCAASGRIFPWYTMGWYRQAPGKERELVAVISSGGRTHYADSVKGRFTISRDNAKNTVYLQMNSLKPEDTAVYYCAAESRYQRYDYWGQGTQVTVSS”, with “high polyreactivity”.
In the case of “QVQLVESGGGLVQAGGSLRLSCAASGRIFPYYAMGWSRQAPGKEREFVAAITKRGGSTSYADSVKGRFTISRDNAKNTVYLQMNSLKPQDTAVYYCNARLYRGQDRYDYWGQGTQVTVSS”, the “polyreactivity (PSR sort gate)” value is given as “low polyreactivity”.
In the case of “QVQLVESGGGLVQAGGSLRLSCAASGRIFPYYAMGWYRQAPGKEREFVAAITRRGTSTYYADSVKGRFTISRDNAKNTVYLQMNSLKPEDTAVYYCNKDIISLSRSYGYWGQGTQVTVSS”, the “polyreactivity (PSR sort gate)” value is listed as “high polyreactivity”.
The entry for “QVQLVESGGGLVQAGGSLRLSCAASGRIFPYYAMGWYRQAPGKERELVAAISQSDGSTYYADSVKGRFTISRDNEKNTVYLQMNSLKPEVTAVYYWAKRQASYTQHRKGRGDYWGQGTQVTVSS” is “low polyreactivity”.
